Test results as given in patent US8071348B2, “Protein tyrosine phosphatase substrate-trapping double mutant and uses thereof” (Albert Einstein College of Medicine of Yeshiva University, priority 2002, dated 2011).

Key:
[1] = target: epidermal growth factor receptor (EGFR) of COS1 cells, tyrosine-phosphorylated (monkey (COS1 cells)); experiment: co-immunoprecipitation from EGF-treated COS1 lysates with anti-HA agarose, anti-pTyr blot
[2] = target: epidermal growth factor receptor (EGFR) of COS1 cells, tyrosine-phosphorylated (monkey (COS1 cells)); experiment: cell-based or functional assay

**Q.** “HA-tagged full-length human PTP1B D181A/Q262A (from UniProt P18031 1-435) (enzyme)” was tested. Which fold greater quantity of tyrosine-phosphorylated EGF receptor co-precipitated than with the D181A mutant [1] did it give?
**A.** Its fold greater quantity of tyrosine-phosphorylated EGF receptor co-precipitated than with the D181A mutant is > 3 fold.

**Q.** And the protection of the phosphorylated EGF receptors in COS1 cells, against the D181A mutant (anti-pTyr immunoblot of lysates) [2]?
**A.** Its protection of the phosphorylated EGF receptors in COS1 cells, against the D181A mutant (anti-pTyr immunoblot of lysates) is 3 fold.
